Data as given in patent US20200407442A1 (WUXI BIOLOGICS IRELAND, published 2020).

Assays:
Experiment in all cases: FACS, 1 ug/mL antibody, transfected 293F cells
[1] = target: T1, full-length mouse LAG-3 on cells (mouse, UniProt Q61790 24-521)
T1 construct: also called mPro1.FL; murine LAG-3
T1 sequence: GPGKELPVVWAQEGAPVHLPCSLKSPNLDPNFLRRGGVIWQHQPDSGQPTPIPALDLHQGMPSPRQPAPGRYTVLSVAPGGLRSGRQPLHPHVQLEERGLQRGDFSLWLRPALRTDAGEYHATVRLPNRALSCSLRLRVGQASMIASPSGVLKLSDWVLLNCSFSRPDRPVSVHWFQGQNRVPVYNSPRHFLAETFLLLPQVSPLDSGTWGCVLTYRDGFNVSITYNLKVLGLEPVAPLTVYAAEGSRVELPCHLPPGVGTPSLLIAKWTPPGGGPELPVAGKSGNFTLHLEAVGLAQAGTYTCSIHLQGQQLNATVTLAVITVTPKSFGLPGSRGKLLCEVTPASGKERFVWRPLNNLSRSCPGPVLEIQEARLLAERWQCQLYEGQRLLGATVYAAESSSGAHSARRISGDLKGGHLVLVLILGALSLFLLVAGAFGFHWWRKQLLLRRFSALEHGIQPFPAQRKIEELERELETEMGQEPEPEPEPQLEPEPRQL

Variant 8: xPro1.FL-x8 = target: T2, Variant 8: xPro1.FL-x8 (human; mouse)
T2 construct: Chimeric full-length LAG-3 on transfected 293F cells
T2 chain: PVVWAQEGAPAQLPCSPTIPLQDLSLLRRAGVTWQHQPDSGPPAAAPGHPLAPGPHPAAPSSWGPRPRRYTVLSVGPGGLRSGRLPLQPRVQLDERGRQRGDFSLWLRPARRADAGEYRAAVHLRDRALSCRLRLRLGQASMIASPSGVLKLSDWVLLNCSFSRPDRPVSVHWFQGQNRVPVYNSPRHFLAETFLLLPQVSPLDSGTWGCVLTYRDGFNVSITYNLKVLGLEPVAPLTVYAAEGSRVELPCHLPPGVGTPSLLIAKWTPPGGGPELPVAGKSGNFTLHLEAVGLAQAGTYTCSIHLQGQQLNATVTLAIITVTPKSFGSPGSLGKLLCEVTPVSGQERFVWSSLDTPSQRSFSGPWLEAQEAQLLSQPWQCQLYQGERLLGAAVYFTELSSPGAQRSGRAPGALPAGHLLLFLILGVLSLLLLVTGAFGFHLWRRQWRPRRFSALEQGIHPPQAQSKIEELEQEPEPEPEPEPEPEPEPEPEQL

Variant 1: xPro1.FL-x1 = target: T3, Variant 1: xPro1.FL-x1 (human; mouse)
T3 construct: Chimeric full-length LAG-3 on transfected 293F cells
T3 chain: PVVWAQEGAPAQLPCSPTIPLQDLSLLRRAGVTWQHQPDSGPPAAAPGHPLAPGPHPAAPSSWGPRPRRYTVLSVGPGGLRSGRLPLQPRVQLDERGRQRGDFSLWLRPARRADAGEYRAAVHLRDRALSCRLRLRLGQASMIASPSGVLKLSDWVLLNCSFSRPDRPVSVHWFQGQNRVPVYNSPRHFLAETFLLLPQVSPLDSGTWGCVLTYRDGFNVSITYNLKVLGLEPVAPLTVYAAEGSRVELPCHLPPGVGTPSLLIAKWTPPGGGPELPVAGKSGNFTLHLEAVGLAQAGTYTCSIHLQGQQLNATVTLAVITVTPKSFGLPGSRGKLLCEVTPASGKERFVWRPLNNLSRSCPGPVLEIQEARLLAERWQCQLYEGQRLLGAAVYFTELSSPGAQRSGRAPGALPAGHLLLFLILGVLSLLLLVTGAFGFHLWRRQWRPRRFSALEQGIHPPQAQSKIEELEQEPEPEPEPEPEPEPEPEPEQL

Variant 3: xPro1.FL-x3 = target: T4, Variant 3: xPro1.FL-x3 (human; mouse)
T4 construct: Chimeric full-length LAG-3 on transfected 293F cells
T4 chain: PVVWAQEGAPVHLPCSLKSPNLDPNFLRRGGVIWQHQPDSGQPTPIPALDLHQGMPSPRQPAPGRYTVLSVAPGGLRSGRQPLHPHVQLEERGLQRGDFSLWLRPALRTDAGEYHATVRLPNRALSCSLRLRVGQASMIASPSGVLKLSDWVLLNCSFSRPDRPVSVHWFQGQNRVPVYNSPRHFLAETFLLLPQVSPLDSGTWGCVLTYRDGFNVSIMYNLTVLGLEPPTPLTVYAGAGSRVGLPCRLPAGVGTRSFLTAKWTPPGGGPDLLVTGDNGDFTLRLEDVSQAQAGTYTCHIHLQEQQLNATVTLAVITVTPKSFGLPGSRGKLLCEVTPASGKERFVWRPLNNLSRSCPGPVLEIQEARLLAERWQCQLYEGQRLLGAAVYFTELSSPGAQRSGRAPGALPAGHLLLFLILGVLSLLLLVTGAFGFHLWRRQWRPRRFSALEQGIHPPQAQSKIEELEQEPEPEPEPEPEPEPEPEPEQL

B1: 1.53.3-uAb-IgG4k (antibody, V domains shown)
VH: QVQLQQWGAGLLKPSETLSLTCGVYGGSFSGYYWSWIRQPPGMGLEWIGEINHRGNTNYNPSLKSRVTISEDTSKNQFSLRLSSVTAADTAVYFCTRGEDYSDYDYYGDFWGQGTLVTVSS
VL: EIVLTQSPATLSLSQGERATLSCRASQSISSYLAWYQQKPGQAPRLLIYAASNRATGIPARFSGSGSGTDFTLTISSLEPEDFAIYYCQQRSNWPLTFGGGTKVEIK
notes: Fully human antibody from OMT rats; IgG4 kappa by its name
- MFI [1]: 43.9
- PE+ % [1]: 1.1%
- MFI (Variant 8: xPro1.FL-x8): 7430
- PE+ % (Variant 8: xPro1.FL-x8): 97.6%
- MFI (Variant 1: xPro1.FL-x1): 8580
- PE+ % (Variant 1: xPro1.FL-x1): 97%
- MFI (Variant 3: xPro1.FL-x3): 41.7
- PE+ % (Variant 3: xPro1.FL-x3): 2.03%
